This assay has as its target FGF receptor (FGFR) on Swiss 3T3 cells. In words: cell-based or functional assay.

basic FGF (ligand) displayed an EC50 of mitogenesis (BrdU incorporation) in Swiss 3T3 cells with 15 U/ml heparin of 0.14 nM.

The record behind these values is patent publication US20040054131A1.
